Assay [1] concerns the target T1, mouse CD300c antigen (mouse).
T1 sequence (A2A7V7 whole entry, looked up): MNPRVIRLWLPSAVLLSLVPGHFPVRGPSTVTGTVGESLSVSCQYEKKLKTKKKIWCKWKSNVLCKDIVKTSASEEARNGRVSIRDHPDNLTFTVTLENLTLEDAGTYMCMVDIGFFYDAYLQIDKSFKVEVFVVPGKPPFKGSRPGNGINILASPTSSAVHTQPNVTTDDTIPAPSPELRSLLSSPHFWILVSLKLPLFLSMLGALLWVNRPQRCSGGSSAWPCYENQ
In words: cell-based or functional assay.

In assay [2] the target is T2, CD300a antigen (12449-H08H, Sino Biological) (UniProt Q9UGN4 18-180).
T2 sequence (looked up): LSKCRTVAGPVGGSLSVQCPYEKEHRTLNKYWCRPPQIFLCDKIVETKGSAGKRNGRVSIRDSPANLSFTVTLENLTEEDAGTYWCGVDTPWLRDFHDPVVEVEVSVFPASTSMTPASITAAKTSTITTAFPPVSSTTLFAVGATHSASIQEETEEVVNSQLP
As to the kind of experiment: binding ELISA, antigens coated at 8 ug/mL, HRP anti-Fc IgG, O.D 450 nm. The protocol:
(§1) Binding ELISA was performed to identify that the anti-CD300c monoclonal antibody CL7 specifically binds only to CD300c without binding to other B7 family proteins. More specifically, each of CD300c antigen, CD300a antigen, or seven B7 family protein antigens (PD-L1 [B7-H1] (Sino Biological), ICOS Ligand[B7-H2] (Sino Biological), CD276[B7-H3] (Sino Biological), B7-H4 (Sino Biological), CD80[B7-1] (Sino Biological), CD86[B7-2] (Sino Biological), CD273[PD-L2] (Sino Biological)) in a coating buffer (0.1 M sodium carbonate, pH 9.0) was coated on an ELISA plate at a concentration of 8 μg/mL per well, and then incubation was performed at 2° C. to 8° C. overnight so that the antigen bound to the plate. The unbound antigen was removed by performing washing with PBST three times, and then […] of blocking buffer (5% skim milk in PBST) was added to each well. Subsequently, blocking was performed at room temperature for 1 hour, and then washing was performed again with PBST. Thereafter, CL7 was diluted in quadruplicate with PBS, and subjected to reaction with the antigen at room temperature for 1 hour for antigen binding. 1 hour later, washing with PBST was performed three times. Then, a secondary antibody (HRP-conjugated anti-Fc IgG) diluted to 4 μg/mL in blocking buffer was added thereto, and reaction was allowed to proceed at room temperature for 1 hour. Subsequently, the unbound antibody for detection was removed using PBST, and then a TMB solution was added thereto. Reaction was allowed to proceed for 10 minutes for development. Then, 2 N sulfuric acid solution was added to terminate the development, and the absorbance was measured at 450 nm to identify the antibody that specifically binds to the CD300c antigen.

The target in assay [3] is PD-L1 [B7-H1] (Sino Biological) (UniProt Q9NZQ7 19-239, limits assumed). The assay is described as above. The protocol: as §1
The target of assay [4] is T3, ICOS Ligand[B7-H2] (Sino Biological) (UniProt O75144 19-258, limits assumed).
T3 sequence (looked up): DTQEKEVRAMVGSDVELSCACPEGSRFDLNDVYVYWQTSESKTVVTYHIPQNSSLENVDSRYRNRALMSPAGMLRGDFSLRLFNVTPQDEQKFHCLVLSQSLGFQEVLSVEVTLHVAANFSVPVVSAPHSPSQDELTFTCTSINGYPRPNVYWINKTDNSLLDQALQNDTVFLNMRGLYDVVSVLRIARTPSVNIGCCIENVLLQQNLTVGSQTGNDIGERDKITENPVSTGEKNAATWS
The assay is described as above. The protocol: as §1

Assay [5] has as its target T4, CD276[B7-H3] (Sino Biological) (UniProt Q5ZPR3 29-461, limits assumed).
T4 sequence (looked up): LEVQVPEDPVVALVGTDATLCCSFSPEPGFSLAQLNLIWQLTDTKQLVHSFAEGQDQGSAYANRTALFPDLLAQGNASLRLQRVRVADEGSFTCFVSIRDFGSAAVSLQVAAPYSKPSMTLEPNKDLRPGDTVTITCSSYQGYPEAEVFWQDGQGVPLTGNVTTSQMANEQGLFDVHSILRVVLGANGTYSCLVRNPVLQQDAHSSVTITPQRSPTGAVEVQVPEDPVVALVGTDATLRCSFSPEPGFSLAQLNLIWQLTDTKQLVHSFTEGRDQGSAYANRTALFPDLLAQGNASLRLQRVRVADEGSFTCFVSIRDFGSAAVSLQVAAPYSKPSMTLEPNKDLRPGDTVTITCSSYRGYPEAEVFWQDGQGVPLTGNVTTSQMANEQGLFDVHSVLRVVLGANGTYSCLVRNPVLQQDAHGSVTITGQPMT
The assay is described as above. The procedure: as §1

Assay [6] concerns the target T5, B7-H4 (Sino Biological) (UniProt Q7Z7D3 25-258, limits assumed).
T5 sequence (looked up): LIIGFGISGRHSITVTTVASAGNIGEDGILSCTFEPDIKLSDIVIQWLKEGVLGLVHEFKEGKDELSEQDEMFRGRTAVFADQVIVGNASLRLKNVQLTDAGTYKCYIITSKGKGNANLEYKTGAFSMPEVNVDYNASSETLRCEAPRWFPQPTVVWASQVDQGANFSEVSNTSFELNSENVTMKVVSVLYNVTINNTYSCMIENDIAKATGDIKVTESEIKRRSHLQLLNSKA
The description is as above. The procedure:
as §1

In assay [7] the target is T6, CD80[B7-1] (Sino Biological) (UniProt P33681 35-242, limits assumed).
T6 sequence (looked up): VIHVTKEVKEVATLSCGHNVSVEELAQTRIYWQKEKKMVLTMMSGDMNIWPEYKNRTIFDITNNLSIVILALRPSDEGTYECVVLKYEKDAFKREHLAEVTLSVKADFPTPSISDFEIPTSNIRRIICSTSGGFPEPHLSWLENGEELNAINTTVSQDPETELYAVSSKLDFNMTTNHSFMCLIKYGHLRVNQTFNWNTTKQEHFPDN
The assay is described as above. The protocol:
as §1

The target in assay [8] is T7, CD86[B7-2] (Sino Biological) (UniProt P42081 24-247, limits assumed).
T7 sequence (looked up): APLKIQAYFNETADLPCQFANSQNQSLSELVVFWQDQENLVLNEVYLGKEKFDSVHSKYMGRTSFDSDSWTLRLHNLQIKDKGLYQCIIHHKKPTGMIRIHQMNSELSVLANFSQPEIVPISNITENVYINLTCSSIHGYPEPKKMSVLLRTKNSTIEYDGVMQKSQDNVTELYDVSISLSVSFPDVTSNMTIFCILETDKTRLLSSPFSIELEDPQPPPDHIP
Described as above. The protocol:
as §1

In assay [9] the target is T8, CD273[PD-L2] (Sino Biological) (UniProt Q9BQ51 20-219, limits assumed).
T8 sequence (looked up): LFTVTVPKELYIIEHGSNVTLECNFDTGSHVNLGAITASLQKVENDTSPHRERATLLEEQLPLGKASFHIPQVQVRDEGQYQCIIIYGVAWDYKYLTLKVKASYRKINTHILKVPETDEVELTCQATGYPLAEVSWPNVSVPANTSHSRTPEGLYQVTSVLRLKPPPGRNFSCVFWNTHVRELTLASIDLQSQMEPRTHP
The assay is described as above. The protocol:
as §1

Results on three molecules are retold here after patent US20220275103A1 (CENTRICSBIO, published 2022).

PD-L1 [B7-H1] (Sino Biological), sequence (Q9NZQ7 19-239 limits assumed): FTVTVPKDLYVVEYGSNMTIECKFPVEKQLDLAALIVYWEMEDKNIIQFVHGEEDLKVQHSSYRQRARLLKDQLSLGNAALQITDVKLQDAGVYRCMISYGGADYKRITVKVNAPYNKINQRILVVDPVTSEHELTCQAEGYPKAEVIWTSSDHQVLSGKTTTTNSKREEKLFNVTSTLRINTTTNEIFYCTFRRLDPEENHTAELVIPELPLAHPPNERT

B1: CL7 (antibody, V domains shown)
VH: EVQLLESGGGLVQPGGSLRLSCAASGFTFSRYAMSWVRQAPGKGLEWVSAISGSGGSTYYADSVKGRFTISRDNSKNTLYLQMNSLRAEDTAVYYCARSSQGIFDIWGQGTLVTVSS
VL: QSVLTQPPSASGTPGQRVTISCSGNNIGTRRVHWYQQLPDTAPKLLIYSKNNRPSGVPDRFSGSKSGTSASLAISGLRSEDEADYYCAAWDDSLSGPVFGGGTKLTVL
notes: VH3VL1 phage library clone; also called anti-CD300c monoclonal antibody CL7; CB301 antibody CL7
As to B1, in [1], the “cancer cell proliferation inhibitory effect on CT26 mouse colorectal cancer cells (CCK-8, 10 ug/mL antibody, 5 days), higher than the control group” value came out at 66%. Further, the binding result in [2], in assay [3], in assay [4], in assay [5], in assay [6] and in assay [7] was “no binding (tested: log10 about 0.4 (about 2.5 ug/ml))” each time. For the same molecule, the binding result in assay [8] and in [9] was “no binding (tested: log10 about 0.4 (about 2.5 ug/ml))” throughout.

B2: CL10 (antibody, V domains shown)
VH: EVQLLESGGGLVQPGGSLRLSCAASGFTFSSYGMHWVRQAPGKGLEWVSAISGSGGSTYYADSVKGRFTISRDNSKNTLYLQMNSLRAEDTAVYYCASGYGLMDVWGQGTLVTVSS
VL: QSVLTQPPSASGTPGQRVTISCTRSSGIIASNYVQWYQQLPGTAPKLLIYRNNQRPSGVPDRFSGSKSGTSASLAISGLRSEDEADYYCSSYAGNNNLVFGGGTKLTVL
Consider B2, for which, in assay [1], the “cancer cell proliferation inhibitory effect on CT26 mouse colorectal cancer cells (CCK-8, 10 ug/mL antibody, 5 days), higher than the control group” value amounted to 15%.

B3: SL18 (antibody, V domains shown)
VH: RVQLLESGGGLVQPGGSLRLSCAASGFTFSDYHMHWVRQAPGKGLEWVSTISSSGGYTYYAESVKSRFTISRDNSKNTLYLQMNSLRAEDTAVYYCARSIRLPLDYWGQGTLVTVSS
VL: QSVLTQPPSASGTPGQRVTISCSGNNIGSKGVHWYQQLPGTAPKLLIYEDSKRPSGVRDRFSGSKSGTSASLAISGLRSEDEADYYCQSYDSTKGVVFGGGTKLTVL
As to B3, the “cancer cell proliferation inhibitory effect on CT26 mouse colorectal cancer cells (CCK-8, 10 ug/mL antibody, 5 days), higher than the control group” value in [1] worked out at 38%.
